Test results reported in PMC6719441, “CDK2 regulates the NRF1/Ehmt1 axis during meiotic prophase I”.

Molecular target: T1, NRF1 (GST-NRF1, unphosphorylated) (Homo sapiens, UniProt Q16656 1-503)
T1 sequence: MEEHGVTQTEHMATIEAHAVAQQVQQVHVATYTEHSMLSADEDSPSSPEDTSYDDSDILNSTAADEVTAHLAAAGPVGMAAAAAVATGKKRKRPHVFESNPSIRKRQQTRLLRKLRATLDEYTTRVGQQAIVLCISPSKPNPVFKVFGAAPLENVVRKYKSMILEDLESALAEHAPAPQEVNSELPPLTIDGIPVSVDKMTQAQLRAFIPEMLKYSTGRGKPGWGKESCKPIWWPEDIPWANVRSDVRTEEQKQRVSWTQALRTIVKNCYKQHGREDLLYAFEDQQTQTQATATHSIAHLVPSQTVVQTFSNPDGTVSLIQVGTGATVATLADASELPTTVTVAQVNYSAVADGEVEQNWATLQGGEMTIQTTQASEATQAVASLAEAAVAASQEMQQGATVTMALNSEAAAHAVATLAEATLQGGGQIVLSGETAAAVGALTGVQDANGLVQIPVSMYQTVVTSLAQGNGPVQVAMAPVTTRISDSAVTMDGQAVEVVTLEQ
Experiment: EMSA; 1-3 ug protein, poly[d(I-C)]; concentration-dependent; 5 mM Hepes pH 8.0, 20 nM DTT (so in the source), 30 mM NaCl, 10 ng DIG probe, 1 ug poly[d(I-C)], 0.5-2 ug GST-NRF1 (Methods; legend 1-3 ug), 5 min RT; 6% native TBE-PAGE, 0.5x TBE pH 8.3, 4 C
Details: protein: recombinant; tags: N-terminal GST (pGEX6P1); chain copies: 2; label: DIG (DIG 3'-end labeling kit named); blunt

B1: Ehmt1 promoter probe (PKO 5019/PKO 5020) (dsDNA)
DNA 1: GCCACCTGGCCTCGCCTCCAGACGCAGGCGCCGCACGGGTGGGTC
DNA 2: GACCCACCCGTGCGGCGCCTGCGTCTGGAGGCGAGGCCAGGTGGC
binding result: binds
